# Reference: patent publication US20230338555A1 (IONIS PHARMACEUTICALS, published 2023)
# Where two headings read alike, the source gives them in different places. Ends that are not written are not given here. * marks the point of attachment. Azidoacetyl = [N-]=[N+]=NCC(=O)*
# T1: human sortilin stably expressed on HEK 293 cells (HEK-SORT1 cells) (human, UniProt Q99523 78-831)
# T1 sequence (looked up): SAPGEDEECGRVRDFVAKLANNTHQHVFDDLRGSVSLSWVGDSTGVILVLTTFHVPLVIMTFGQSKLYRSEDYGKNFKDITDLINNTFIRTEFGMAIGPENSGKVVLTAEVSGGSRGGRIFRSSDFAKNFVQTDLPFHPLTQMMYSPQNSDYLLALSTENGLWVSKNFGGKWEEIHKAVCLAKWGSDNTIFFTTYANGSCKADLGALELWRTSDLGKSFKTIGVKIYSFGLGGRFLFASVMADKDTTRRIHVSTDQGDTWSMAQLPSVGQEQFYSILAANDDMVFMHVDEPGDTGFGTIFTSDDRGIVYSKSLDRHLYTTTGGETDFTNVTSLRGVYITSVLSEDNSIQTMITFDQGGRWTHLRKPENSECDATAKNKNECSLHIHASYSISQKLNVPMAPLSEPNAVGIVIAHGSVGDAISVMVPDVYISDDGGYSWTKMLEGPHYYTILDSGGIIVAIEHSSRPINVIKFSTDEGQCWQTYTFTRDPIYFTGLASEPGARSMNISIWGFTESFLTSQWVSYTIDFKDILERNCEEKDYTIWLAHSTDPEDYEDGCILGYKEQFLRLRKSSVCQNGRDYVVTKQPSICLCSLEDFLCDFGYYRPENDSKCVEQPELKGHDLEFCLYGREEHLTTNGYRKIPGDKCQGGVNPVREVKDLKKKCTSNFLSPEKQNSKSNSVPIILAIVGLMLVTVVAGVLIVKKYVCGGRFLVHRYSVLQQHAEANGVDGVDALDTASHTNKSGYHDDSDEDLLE
# B1: Compound No. 1091165, [SO5P]-LYEN[azido-acetyl-K]PRRPYIL peptide conjugated to 20-mer MOE oligonucleotide with 3'-Cy3 (peptide)
# peptide: LYENXPRRPYIL
# modifications: not fully specified; position 1 is SO5P (5-oxoproline); internal lysine (LYEN-K) side chain azido-acetyl joined via triazolo-BCN carbamate / 6-aminohexanol linker to 5' end of … (SEQ ID NO 2, uniform MOE, phosphodiester, 3'-Cy3)
# B2: Compound No. 1252445, XAGMSGASAGLYENKPRRPYIL peptide conjugated to 20-mer MOE oligonucleotide with 3'-Cy3 (peptide)
# peptide: KAGMSGASAGLYENKPRRPYIL
# modifications: not fully specified (residue 1); also: X side chain clicked via BCN (triazole) and 6-aminohexanol linker to 5' end of oligonucleotide CCAGGCTGGTTATGACTCAG (MOE, 3'-Cy3)
# B3: Compound No. 1270698, XLYENKPKRPYIL peptide conjugated to 20-mer MOE oligonucleotide with 3'-Cy3 (peptide)
# peptide: XLYENKPKRPYIL
# modifications: not fully specified; X at position 1 is 2-azido-acetyl lysine, joined via triazolo-BCN carbamate / 6-aminohexanol linker to 5' end of … (SEQ ID NO 2, uniform MOE, phosphodiester, 3'-Cy3)
# B4: Compound No. 1252444, XAGSIKPPPAGSSPGLYENKPRRPYIL peptide conjugated to 20-mer MOE oligonucleotide with 3'-Cy3 (peptide)
# peptide: KAGSIKPPPAGSSPGLYENKPRRPYIL
# modifications: not fully specified (residue 1); also: X side chain clicked via BCN (triazole) and 6-aminohexanol linker to 5' end of oligonucleotide CCAGGCTGGTTATGACTCAG (MOE, 3'-Cy3)
# B5: Compound No. 1270697, … peptide conjugated to 20-mer MOE oligonucleotide with 3'-Cy3 (peptide)
# peptide: K(Azidoacetyl)LYENKPKKPYIL
# modifications: not fully specified; printed as 2-azido-acetyl-KLYENKPKKPYIL; also: azide joined via triazolo-BCN carbamate/6-aminohexanol linker to 5' end of 20-mer MOE oligonucleotide CCAGGCTGGTTATGACTCAG (uniform MOE, phosphodiester, 3'-Cy3)
# B6: Compound 17-AE-9199, Cy3-labeled [SO5P]LYEN[azido-acetyl-K]PRRPYIL peptide (peptide)
# peptide: LYENXPRRPYIL
# modifications: not fully specified; position 1 is SO5P (5-oxoproline); internal lysine (LYEN-K) carries the azido-acetyl group joined to Cy3-BCN reagent (Cy3 label)
# B7: Compound No. 1252443, XPAPSGPSPGLYENKPRRPYIL peptide conjugated to 20-mer MOE oligonucleotide with 3'-Cy3 (peptide)
# peptide: KPAPSGPSPGLYENKPRRPYIL
# modifications: not fully specified (residue 1); also: X side chain clicked via BCN (triazole) and 6-aminohexanol linker to 5' end of oligonucleotide CCAGGCTGGTTATGACTCAG (MOE, 3'-Cy3)
# How the values were obtained:
# Test in all cases: cell-based or functional assay
# [1] = target: T1, human sortilin stably expressed on HEK …
# [2] = target: T1, human sortilin stably expressed on HEK …; remark: listed apart in the source
# [3] = target: T1, human sortilin stably expressed on HEK …; remark: listed apart in the source
binder,measurement,setting,value
B1,"Mean Fluorescence Intensity (MFI), uptake 37C-4C, at 12 nM",[1],45 MFI
same,"Mean Fluorescence Intensity (MFI), uptake 37C-4C, at 37 nM",[1],53 MFI
same,"Mean Fluorescence Intensity (MFI), uptake 37C-4C, at 111 nM",[1],60 MFI
same,"Mean Fluorescence Intensity (MFI), uptake 37C-4C, at 333 nM",[1],73 MFI
same,"Mean Fluorescence Intensity (MFI), uptake 37C-4C, at 1000 nM",[1],97 MFI
B2,"Mean Fluorescence Intensity (MFI), uptake 37C-4C, at 7 nM",[2],55 MFI
same,"Mean Fluorescence Intensity (MFI), uptake 37C-4C, at 22 nM",[2],85 MFI
same,"Mean Fluorescence Intensity (MFI), uptake 37C-4C, at 76 nM",[2],306 MFI
same,"Mean Fluorescence Intensity (MFI), uptake 37C-4C, at 260 nM",[2],868 MFI
same,"Mean Fluorescence Intensity (MFI), uptake 37C-4C, at 882 nM",[2],1950 MFI
same,"Mean Fluorescence Intensity (MFI), uptake 37C-4C, at 3000 nM",[2],2880 MFI
B3,"Mean Fluorescence Intensity (MFI), uptake 37C-4C, at 12 nM",[3],35 MFI
same,"Mean Fluorescence Intensity (MFI), uptake 37C-4C, at 37 nM",[3],48 MFI
same,"Mean Fluorescence Intensity (MFI), uptake 37C-4C, at 111 nM",[3],78 MFI
same,"Mean Fluorescence Intensity (MFI), uptake 37C-4C, at 333 nM",[3],155 MFI
same,"Mean Fluorescence Intensity (MFI), uptake 37C-4C, at 1000 nM",[3],394 MFI
B4,"Mean Fluorescence Intensity (MFI), uptake 37C-4C, at 7 nM",[2],90 MFI
same,"Mean Fluorescence Intensity (MFI), uptake 37C-4C, at 22 nM",[2],208 MFI
same,"Mean Fluorescence Intensity (MFI), uptake 37C-4C, at 76 nM",[2],609 MFI
same,"Mean Fluorescence Intensity (MFI), uptake 37C-4C, at 260 nM",[2],1530 MFI
same,"Mean Fluorescence Intensity (MFI), uptake 37C-4C, at 882 nM",[2],2510 MFI
same,"Mean Fluorescence Intensity (MFI), uptake 37C-4C, at 3000 nM",[2],3390 MFI
B5,"Mean Fluorescence Intensity (MFI), uptake 37C-4C, at 12 nM",[3],39 MFI
same,"Mean Fluorescence Intensity (MFI), uptake 37C-4C, at 37 nM",[3],51 MFI
same,"Mean Fluorescence Intensity (MFI), uptake 37C-4C, at 111 nM",[3],86 MFI
same,"Mean Fluorescence Intensity (MFI), uptake 37C-4C, at 333 nM",[3],185 MFI
same,"Mean Fluorescence Intensity (MFI), uptake 37C-4C, at 1000 nM",[3],474 MFI
B6,"Mean Fluorescence Intensity (MFI), uptake 37C-4C, at 12 nM",[1],174 MFI
same,"Mean Fluorescence Intensity (MFI), uptake 37C-4C, at 37 nM",[1],378 MFI
same,"Mean Fluorescence Intensity (MFI), uptake 37C-4C, at 111 nM",[1],825 MFI
same,"Mean Fluorescence Intensity (MFI), uptake 37C-4C, at 333 nM",[1],1090 MFI
same,"Mean Fluorescence Intensity (MFI), uptake 37C-4C, at 1000 nM",[1],1220 MFI
"KLYENKPRKPYIL (not fully specified (residue 1)) [Compound No. 1270696, XLYENKPRKPYIL peptide conjugated to 20-mer MOE oligonucleotide with 3'-Cy3]","Mean Fluorescence Intensity (MFI), uptake 37C-4C, at 12 nM",[3],43 MFI
same,"Mean Fluorescence Intensity (MFI), uptake 37C-4C, at 37 nM",[3],61 MFI
same,"Mean Fluorescence Intensity (MFI), uptake 37C-4C, at 111 nM",[3],138 MFI
same,"Mean Fluorescence Intensity (MFI), uptake 37C-4C, at 333 nM",[3],312 MFI
same,"Mean Fluorescence Intensity (MFI), uptake 37C-4C, at 1000 nM",[3],1100 MFI
B7,"Mean Fluorescence Intensity (MFI), uptake 37C-4C, at 7 nM",[2],53 MFI
same,"Mean Fluorescence Intensity (MFI), uptake 37C-4C, at 22 nM",[2],130 MFI
same,"Mean Fluorescence Intensity (MFI), uptake 37C-4C, at 76 nM",[2],413 MFI
same,"Mean Fluorescence Intensity (MFI), uptake 37C-4C, at 260 nM",[2],1230 MFI
same,"Mean Fluorescence Intensity (MFI), uptake 37C-4C, at 882 nM",[2],2430 MFI
same,"Mean Fluorescence Intensity (MFI), uptake 37C-4C, at 3000 nM",[2],3390 MFI
